Source: patent US20050282739A1 (PALATIN TECHNOLOGIES, published 2005)
Square brackets hold non-standard residues; d marks the D form. Ends that are not written are not given here. Nle = CCCC[C@H](N)C(=O)O

B1: metallopeptide 5-6 (peptide)
peptide: YV[Nle]GHCRWDRF-NH2
modifications: also: oxorhenium(V) N3S1 chelate: C6 SG + backbone N of G4, H5, C6, bridge at 6 via Re(V)=O, other end not in the chain
B2: metallopeptide 5-4 (peptide)
peptide: YV[Nle]GH[dF]RCDRF-NH2
modifications: also: oxorhenium(V) N3S1 chelate: C8 SG + backbone N of F6, R7, C8, bridge at 8 via Re(V)=O, other end not in the chain
B3: metallopeptide 5-2 (peptide)
peptide: YV[Nle]GH[dF]RWDCF-NH2
modifications: also: oxorhenium(V) N3S1 chelate: C10 SG + backbone N of W8, D9, C10, bridge at 10 via Re(V)=O, other end not in the chain
B4: metallopeptide 5-8 (peptide)
peptide: YV[Nle]CH[dF]RWDRF-NH2
modifications: also: oxorhenium(V) N3S1 chelate: C4 SG + backbone N of V2, X3, C4, bridge at 4 via Re(V)=O, other end not in the chain
B5: metallopeptide 5-7 (peptide)
peptide: YV[Nle]GC[dF]RWDRF-NH2
modifications: also: oxorhenium(V) N3S1 chelate: C5 SG + backbone N of X3, G4, C5, bridge at 5 via Re(V)=O, other end not in the chain
B6: metallopeptide 5-5 (peptide)
peptide: YV[Nle]GH[dF]CWDRF-NH2
modifications: also: oxorhenium(V) N3S1 chelate: C7 SG + backbone N of H5, F6, C7, bridge at 7 via Re(V)=O, other end not in the chain
B7: metallopeptide 5-1 (peptide)
peptide: YV[Nle]GH[dF]RWDRC-NH2
modifications: also: oxorhenium(V) N3S1 chelate: C11 SG + backbone N of D9, R10, C11, bridge at 11 via Re(V)=O, other end not in the chain
B8: metallopeptide 5-3 (peptide)
peptide: YV[Nle]GH[dF]RWCRF-NH2
modifications: also: oxorhenium(V) N3S1 chelate: C9 SG + backbone N of R7, W8, C9, bridge at 9 via Re(V)=O, other end not in the chain

target: T1, human melanocortin-5 receptor (hMC5-R) (human, UniProt P33032 1-325); experiment: 125I-NDP-α-MSH competition, hMC5-R membranes
T1 construct: whole, on cells; membranes prepared from hMC5-R cells were used; also called Melanocortin Receptor 5
Experimental: (§1) The competitive inhibition binding assay was conducted using membranes prepared from hMC3-R, hMC4-R, hMC5-R, and B-16 mouse melanoma cells (containing MC1-R) using 0.4 nM ¹²⁵I-NDP-alpha-MSH (New England Nuclear, Boston, Mass., USA) in 50 mM HEPES buffer containing 1 mM MgCl₂, 2 mM CaCl₂, and 5 mM KCl, at pH 7.2. […] Incubation was for 90 minutes at room temperature, after which the assay mixture was filtered and the membranes washed three times with ice cold buffer. The filter was dried and counted in a gamma counter for remaining radioactivity bound to the membranes. 100% specific binding was defined as the difference in radioactivity (cpm) bound to cell membranes in the absence and presence of 1 μM α-MSH. […] Each assay was conducted in triplicate and the actual mean valves are described.
(§2) The first unnumbered peptide in Table 3 is the parent polypeptide, which is a Nle³, D-Phe⁶ substituted γ-MSH analog specific for melanocortin receptors. The methods and assays set forth in Example 1 were followed.

T1 sequence (P33032 whole entry): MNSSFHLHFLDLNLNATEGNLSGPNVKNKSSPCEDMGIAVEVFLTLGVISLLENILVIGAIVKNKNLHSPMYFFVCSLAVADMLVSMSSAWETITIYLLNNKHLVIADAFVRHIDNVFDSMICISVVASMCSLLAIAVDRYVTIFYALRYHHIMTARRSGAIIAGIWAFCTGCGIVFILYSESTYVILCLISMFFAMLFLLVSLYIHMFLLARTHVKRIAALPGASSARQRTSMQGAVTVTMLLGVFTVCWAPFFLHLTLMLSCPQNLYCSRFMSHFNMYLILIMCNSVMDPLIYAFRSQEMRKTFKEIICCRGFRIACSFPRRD

| Binder | % Inhibition at 1 µM [%] |
| --- | --- |
| YVXGHFRWDRF (Nle 3 (X in letters); D-Phe 6; C-terminal amide, not complexed to Re) [[Nle3, D-Phe6]-γ-MSH parent polypeptide Tyr-Val-Nle-Gly-His-D-Phe-Arg-Trp-Asp-Arg-Phe-NH2] | 100 |

target: T2, human melanocortin-3 receptor (hMC3-R) (human, UniProt P41968 1-323); experiment: 125I-NDP-α-MSH competition, hMC3-R membranes
T2 construct: whole, on cells; membranes prepared from hMC3-R cells were used; also called Melanocortin Receptor 3
Experimental: as §1
(§3) The first unnumbered peptide in Table 5 is the parent polypeptide, which is a γ-MSH analog specific for melanocortin receptors. The methods and assays set forth in Example 1 were followed.

T2 sequence (P41968 whole entry): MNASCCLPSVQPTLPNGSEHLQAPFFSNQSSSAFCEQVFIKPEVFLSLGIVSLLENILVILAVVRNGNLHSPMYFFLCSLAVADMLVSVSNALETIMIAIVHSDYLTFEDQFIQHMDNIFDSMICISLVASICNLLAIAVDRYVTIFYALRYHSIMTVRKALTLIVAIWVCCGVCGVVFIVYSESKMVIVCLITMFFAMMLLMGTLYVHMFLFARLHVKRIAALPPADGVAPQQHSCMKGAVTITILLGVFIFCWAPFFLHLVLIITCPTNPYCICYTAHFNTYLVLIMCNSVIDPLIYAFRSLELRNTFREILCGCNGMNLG

| Binder | % Inhibition at 1 µM [%] |
| --- | --- |
| YVCGH[dF]RWDRF-NH2 (also: oxorhenium(V) N3S1 chelate complex at Cys3) [metallopeptide 5-9] | 53 |
| YVXGHFRWDRF (Nle 3 (X in letters); D-Phe 6; C-terminal amide, not complexed to Re) [[Nle3, D-Phe6]-γ-MSH parent polypeptide Tyr-Val-Nle-Gly-His-D-Phe-Arg-Trp-Asp-Arg-Phe-NH2] | 100 |
| B1 | 26 |
| B2 | 11 |
| B3 | 39 |
| B4 | 89 |
| B5 | 70 |
| B6 | 15 |
| B7 | 92 |
| B8 | 93 |

target: T3, human melanocortin-4 receptor (hMC4-R) (human, UniProt P32245 1-332); experiment: 125I-NDP-α-MSH competition, hMC4-R membranes
T3 construct: whole, on cells; membranes prepared from hMC4-R cells were used; also called Melanocortin Receptor 4
Experimental: as §1, §2

T3 sequence (P32245 whole entry): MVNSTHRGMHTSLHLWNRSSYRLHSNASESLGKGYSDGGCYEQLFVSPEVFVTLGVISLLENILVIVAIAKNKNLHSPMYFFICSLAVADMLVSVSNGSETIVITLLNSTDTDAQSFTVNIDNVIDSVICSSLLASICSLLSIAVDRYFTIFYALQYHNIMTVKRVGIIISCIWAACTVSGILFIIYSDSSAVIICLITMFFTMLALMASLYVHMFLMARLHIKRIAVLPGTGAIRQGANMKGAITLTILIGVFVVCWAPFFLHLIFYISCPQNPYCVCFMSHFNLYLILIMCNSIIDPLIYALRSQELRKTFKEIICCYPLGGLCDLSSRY

| Binder | % Inhibition at 1 µM [%] |
| --- | --- |
| YVXGHFRWDRF (Nle 3 (X in letters); D-Phe 6; C-terminal amide, not complexed to Re) [[Nle3, D-Phe6]-γ-MSH parent polypeptide Tyr-Val-Nle-Gly-His-D-Phe-Arg-Trp-Asp-Arg-Phe-NH2] | 99 |

target: T4, melanocortin-1 receptor (MC1-R) of B-16 mouse melanoma cells (mouse, UniProt Q01727 1-315); experiment: 125I-NDP-α-MSH competition, B-16 membranes
T4 construct: whole, on cells; membranes prepared from the cells were used; also called Melanocortin Receptor 1
Experimental: as §1, §3

T4 sequence (Q01727 whole entry): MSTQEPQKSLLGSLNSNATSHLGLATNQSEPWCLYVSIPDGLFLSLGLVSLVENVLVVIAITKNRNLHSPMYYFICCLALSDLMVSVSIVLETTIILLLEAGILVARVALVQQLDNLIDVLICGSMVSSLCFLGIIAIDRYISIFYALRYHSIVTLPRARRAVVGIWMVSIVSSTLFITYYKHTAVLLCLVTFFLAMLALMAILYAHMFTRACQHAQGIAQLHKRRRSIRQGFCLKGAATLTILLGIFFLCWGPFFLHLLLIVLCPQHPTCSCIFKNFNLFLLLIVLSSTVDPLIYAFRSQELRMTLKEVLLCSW

| Binder | % Inhibition at 1 µM [%] |
| --- | --- |
| YVCGH[dF]RWDRF-NH2 (also: oxorhenium(V) N3S1 chelate complex at Cys3) [metallopeptide 5-9] | 89 |
| YVXGHFRWDRF (Nle 3 (X in letters); D-Phe 6; C-terminal amide, not complexed to Re) [[Nle3, D-Phe6]-γ-MSH parent polypeptide Tyr-Val-Nle-Gly-His-D-Phe-Arg-Trp-Asp-Arg-Phe-NH2] | 99 |
| B1 | 74 |
| B2 | 86 |
| B3 | 95 |
| B4 | 95 |
| B5 | 89 |
| B6 | 67 |
| B7 | 101 |
| B8 | 100 |

target: T2, human melanocortin-3 receptor (hMC3-R); experiment: 125I-NDP-α-MSH competition, hMC3-R membranes; remark: another data set of the same source
Experimental: as §1, §2

| Binder | % Inhibition at 1 µM [%] |
| --- | --- |
| YVXGHFRWDRF (Nle 3 (X in letters); D-Phe 6; C-terminal amide, not complexed to Re) [[Nle3, D-Phe6]-γ-MSH parent polypeptide Tyr-Val-Nle-Gly-His-D-Phe-Arg-Trp-Asp-Arg-Phe-NH2] | 100 |

target: T4, melanocortin-1 receptor (MC1-R) of B-16 …; experiment: 125I-NDP-α-MSH competition, B-16 membranes; remark: another data set of the same source
Experimental: as §1, §2

| Binder | % Inhibition at 1 µM [%] |
| --- | --- |
| YVXGHFRWDRF (Nle 3 (X in letters); D-Phe 6; C-terminal amide, not complexed to Re) [[Nle3, D-Phe6]-γ-MSH parent polypeptide Tyr-Val-Nle-Gly-His-D-Phe-Arg-Trp-Asp-Arg-Phe-NH2] | 99 |

target: T1, human melanocortin-5 receptor (hMC5-R); experiment: 125I-NDP-α-MSH competition, hMC5-R membranes; remark: another data set of the same source
Experimental: as §1, §3

| Binder | % Inhibition at 1 µM [%] |
| --- | --- |
| YVCGH[dF]RWDRF-NH2 (also: oxorhenium(V) N3S1 chelate complex at Cys3) [metallopeptide 5-9] | 53 |
| YVXGHFRWDRF (Nle 3 (X in letters); D-Phe 6; C-terminal amide, not complexed to Re) [[Nle3, D-Phe6]-γ-MSH parent polypeptide Tyr-Val-Nle-Gly-His-D-Phe-Arg-Trp-Asp-Arg-Phe-NH2] | 100 |
| B1 | 21 |
| B2 | 58 |
| B3 | 61 |
| B4 | 98 |
| B5 | 88 |
| B6 | 28 |
| B7 | 98 |
| B8 | 100 |

target: T3, human melanocortin-4 receptor (hMC4-R); experiment: 125I-NDP-α-MSH competition, hMC4-R membranes; remark: another data set of the same source
Experimental: as §1, §3

| Binder | % Inhibition at 1 µM [%] |
| --- | --- |
| YVCGH[dF]RWDRF-NH2 (also: oxorhenium(V) N3S1 chelate complex at Cys3) [metallopeptide 5-9] | 66 |
| YVXGHFRWDRF (Nle 3 (X in letters); D-Phe 6; C-terminal amide, not complexed to Re) [[Nle3, D-Phe6]-γ-MSH parent polypeptide Tyr-Val-Nle-Gly-His-D-Phe-Arg-Trp-Asp-Arg-Phe-NH2] | 99 |
| B1 | 4 |
| B2 | 18 |
| B3 | 58 |
| B4 | 86 |
| B5 | 69 |
| B6 | 26 |
| B7 | 95 |
| B8 | 97 |
